From the domain aggregation screens of Martell et al. (2025)

Assay: soluble fraction after stress (log2 fold change); higher = more stays soluble; pooled small domains, quantitative proteomics
Settings: stress: 75 degC
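Further: 20 min heating vs room temperature control held 20 min.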

Row | Sequence | soluble fraction (log2)
1 | HMEPVQFIQFKIPDGHPWSGQLLREVRLPPGTLVVLLKHDGKNIIPNGETPLLAGDSVILSAASPT | -0.567
2 | HMEQAAQPQTGFDPRRLKAGDAVHLLALDQRGVLLEDPKPGAESAPVSVGVAGVRVVVPLREMEALPAG | 0.0201
3 | HMEQEVLDLLFDAIRSLPEKYRRLFDMSFEQGLKNAEIAALLHVSESAVKKQKASMIQQLRDDLLRKTGKD | -0.745
4 | HMEQFDFTILRELRKRAGLSIGEVSAESGVSAAVISKLERNRTRAELDTLYRLARVFGITAAELLNLAEA | -2.19
5 | HMEQIETIFLSAAPYARTHIIHLLETSELFRDKYLTIVETSNGLLIYTEDKNRLLGILNSLT | -2.51
6 | HMEQIFTELIMDGRVLGENLHRMGVDETWLLRQLRQQGYHSAREVFLAVADANKQVAVYPVS | -0.381
7 | HMEQINVTIQTEKGRIDKVLSEHLPNHSRSQIQQWLKEKHVTVNGETVRANYKVTAGDEIVVTIPEPEV | 0.546
8 | HMEQISDEDTLRKMVNEVLDNNQTQLEQYKSGKTNLIGFFVGQTLKKSAGKANPSIVNKLVNEEIYI | 0.141
9 | HMEQISIETRIEQLLARLSETEASGFEELFADTSSRADLITTFLALLEMIRLKLVRVFQDGSFGPIRIYKR | -0.572
10 | HMEQKISVPALVGRDIEEILADTEVTGNFTIKEADKRVASNRPVGEVLEQDPGTGESAVKGTIITVTVSAG | -0.0542
11 | HMEQNTKAYEQVRTLTDLLNQYRHEYYNLSAPSVSDQEYDRLFDALAALEKQTGIVMSNSPTQTVG | 0.0212
12 | HMEQPAPSTTVDILGGGRAALVTANRELGLALADDEIDYLTDSFTQLGRNPVDVELMMFAQA | -0.00398
13 | HMEQSLNTYSIRTVKESLFLAETKNLNKIEKLVEGIEGRLTLSEALVLFSDKLNAMSVLSHVNANT | -0.154
14 | HMEQTIKKYVNVATLNFRSGPSTSYSIISTLSKGTKVEVISTTNNWSKIIYDGKIGYVSSEYLSKSI | -3.07
15 | HMEQVPEAVGRRVRQARSDRGWTLDQLAERSEVSRRMIVNVEAGTSNASIATLLRLATALNVGLAELVA | -1.61
16 | HMEQVVFNGTGRRKSSIARVRIMSGKGNITVNGKALDEYFGEETLKVIVRQPLTVTDTLDKYDVIATVK | 0.0911
17 | HMEQYYVFFAGGMTIGTKEWYESILPENIATSYDDILEGKMMPASLEQIEFYNSHKDYDLYHLFYML | -4.25
18 | HMERAFRILELFDLKQDELPITEIAERTGLPISTAHRLLSTLETLGYIAQNPDNGRYRLGLQTFVLGSR | -1.86
19 | HMERAPAYPDGLTQREVEVLRLIASGKTDREIAEELFIGVRTVSTHVGNILNKTNSANRTEAASYANQQGL | -0.0632
20 | HMEREQNIAQGREVVQRELKRLGLTDVFTVEDIGRALKFDDIDEFLSKVGFGDIQTAKITGAIALMQQALR | -0.0649
21 | HMEREQNIEHGRAIVERELKRLGLSDVYTIADIATALRHDDVDQFLAKIGFGDIQSTQIGGAIAALQQR | 0.0025
22 | HMEREQPFAVTEAYRGMRLDRFLQAMLPRMSRAAIQDAIDNRVRLGSGRAAKASLRPAIGDTVFFGQRI | -1.17
23 | HMERFRQVNAGMTRDDIYQLLGKPTEKTPFPLKNEEVWSWRHQADGQTVALFNIHLDPDGRVTTTSQSMDL | 0.739

Row | Sequence | soluble fraction (log2)
24 | HMERFVVISKDKYANLREEASTNSKVLAKVDNSYLIYNTNTYNENKDWYSVQIERDGNYYQVGYIHKSQL | -1.61
25 | HMERLKRVTLSLNQSNYSVTEIARRLQAITGIKDITVVEDEQAVYLKVDPATFDLTLAQQAV | -0.474
26 | HMERLLVSKINGMITEAKVSVEDVVKVVASRGHYPEVKSIDEYPDDFLSRWVVPNFKKIVEMINANKEA | -0.979
27 | HMERMTSTEILTRDFLTTNSKIVKKSTIEELSEIIHVSPATIIRTVKKMGYSGFSEYKNELINQ | -1.73
28 | HMERPEVVAYRLAYASAESLRPALGLVASPSDLEIDERTNTLIVRAVPSVQERVAELVASLDI | -0.492
29 | HMERPKSLRELALEHLRNSIIDGSLKMGQVLSERKISEELGVSKSPVREALAQLRDEGLVSIEPQKGARV | 0.14
30 | HMERPLFVIEDYRRFAGNEVEISLKKGGKKIRGVIAGTPSDAEVTVRTQGGETTVPLGDVKRAHLVYV | -0.00192
31 | HMERRDEINSVVSRYVSAITEGKYDLAEVDETGKLRVQTEGREVLPEALSRGTLEQFYFAFRMAVGSI | 0.04
32 | HMERTQSIEAAREQLGEVTKDNVFETETLGALAILKENEPGEYAKIKADLKGKINMNDLERAVKKAAADQR | 1.02
33 | HMERYFVLVIYDIVDNKKRLKLSKYLLGYGIRVQKSAFEMMITKEKYNKLIKELPTYIEEGEDSIRLY | 0.0566
34 | HMERYLLRDNIPNALHGERLDRVIAIMTGLSRSAVSALIKSNQVLRNGQIAQSISEKVVEGDELEVHLEP | -0.832
35 | HMESDAIAAAIAALPARYREVLLLRYDNGFSYSEISKALDMTEAAVRKTVQRAKEALQRTLQIQEEDT | -0.767
36 | HMESDRVAHVVAPGETLFSISGKYGIGMGELVAANPVLESRPPRTGDTLLIRLPENPLPAETDAETLS | 0.643
37 | HMESIAEIDRMNAKIFMDEFQDSLSIMQKTTNPETFFSRYDLAMERLDNMVELQQKGIKFTSDLSSLKAQ | 0.0865
38 | HMESIEGMYKISLLRKQGNAYVIFEDENKEAVEHIFPEKPTALELGTKVIEMFEYKERYDGLI | -0.343
39 | HMESILDDFPGLGEKRKKALLEHFGSISKIKAATVGQLREVDGIGFETAAALREFLDANFPA | 0.188
40 | HMESIPDELLEAFKQDPAFKQAFYALTAGRQRGYIIHFSQPKQSQTRIGRIEKYKEQIFNGIGLN | -1.39
41 | HMESKPLTPSEIKKLRMDANMTQAGLAEVLGMTVKAVEAWESGRNIPSGAADKILRVMQKHPSVIGMMQS | 0.0281
42 | HMESLNDRIKLVFKDSGLTQMDISKRLNIAQSSVSGIISGKANPSKRTLADIADRFDVNLEWLRDGTGPMK | 0.474
43 | HMESLSHRQKSIVDWVQKNGYASIERMAEQFEVSAQTIRRDVIELSERRILQRHHGGASLPAG | -0.211
44 | HMESNDSNIEDDFYEGLKSMRKGDLKMSVVFFTRVIEKKPTFAEAWNRRATVYYMLGKFDKSMFDINETLK | -0.354
45 | HMESPELIHILKEAEWQIWQQIQGLPEKQRIAMTLFAMDDLSYQEIADVMKVSVSAIESLLFRARTQLKKY | -0.546
46 | HMESPLEQLTNRELQTLQMLGKGLSTKQIAAQLNLSVKTVETYRENLKRKLNLDSGSELIRYAIHRSNE | 0.532

Row | Sequence | soluble fraction (log2)
47 | HMESPLNPTDVRRAAMDLLARREHGVEELRLKLKRRFGREEDFETIATEQLQRLVDEDLLSDTRF | -0.355
48 | HMESRETGLPVVIISDGRILQDNLKRRGLDLSWLDKQLAEHGYPDFRDVFLLTVDEAGGVYFVPRE | 0.438
49 | HMESSNLESQLKKGIVPNLNGLSAKDALFLLENSGFNVKLYGMGSVKKQSLEAGKKYNKGDKITLIL | 0.151
50 | HMESSYKGFILDIETRQFSPTLIQRRGIAINPSGIVETTTEFSFATQEKVLIEDLKLIIDELDLRADY | -3.69
51 | HMESTLNYSQFLSLVNEDRVAEVVIQGKELYVTDVNRSRFKVYAPPDPELIGLLRQKRVIISAKP | -0.56
52 | HMESVDRIYERVRRYADDVGTAKIPMKELDDDGPLGTAVSRIRERRKRGELTEEWEARFETLPGWTWAA | 0.045
53 | HMESWEDSNIANEFKSTIKIAEKRLAEGGDHPELLEKLEALKQAIINENQTEASKLDDQVNDILFDMDD | 0.602
54 | HMETEAGIKAYLSSSMIKGIGPVTAQRIVERFGKRTLYVLDQMPEKLLDISGISEAKLEEILNGYRKS | -0.536
55 | HMETFGEKDLDELIGRNVELITHDGKVREGLVDSVDRYNVSLVRYLDAGEVAMMVRRREVKAVRLK | -0.703
56 | HMETFGLSQRELQILSQLHKGQPLKEFAASLFITESTLKTHLSAIYRKMSVKNRVQAIEKAKQSGL | -1.4
57 | HMETGEDSLRRYFNSLPGSASKREILEDNPTVSQRTTERILQKLQAEGFIEKVGAARATRYRKVKQ | 0.259
58 | HMETGELQQILEDVFSKNIGIVQDKREAAFSILMGMIMAKSRGRADGALVSTLLKKKLTEFLATSDQVR | -0.0719
59 | HMETGNEDYRVGKELAYDGNYKAATIYLMKSIKDDPNNPDAFNMLGFSHRKLGNNDEAYIYYNKALEL | -0.275
60 | HMETKKEIIEAINELEEKYRNAIYLTSIEKLSYEETSKILGQSLSNTKNLIHRGKQQLRKILIKK | -0.772
61 | HMETLEDHRKKTRQQLFDALSHLLQTSTFESLTMAKIAEEAGVGRTAVYNHFQDKEALLLAFITYETGQ | -1.74
62 | HMETLETYTSRLRQLEDITNNFKGVDKSFAIQAGREIRVMVVPEQVSDADMILMARDISKAIEAELEYPGQ | 0.0937
63 | HMETLGADLRALRKSRGLTLLDMAESLGRSVGWLSQVERDLSDPSISDLREIAELLGVPISMLFRH | -2.83
64 | HMETLKEMDSKGAINASEVNVREGAGTSSSKMYSLSKGASVDVTGIKGDWYRVHTSKGTGYVLAKYVTLVS | -0.29
65 | HMETLYGQIVNDIMEKIESNAWPVGYVIPTESDFQKQYGVSRATVRNAILKLAHLGYLVRKKGSGTYVTRP | -1.25
66 | HMETPEIPGLTPRQVEIMLLVGKGYSNKEIARFLTISPETVKTHLKEVFLRFGLRNRVEAIDFTRQNGL | -0.656
67 | HMETPLSAADFKIVFGEEYEIGTDANGLPKMGSRINRQLQNRFLTWASVNKRKATMSAYQDWVASDPAAQ | -0.323
68 | HMETQVKVPNVVGMTQSKAIAKLKESKLDYEVQEQKHDGDKGKVVDQSEAEGTYVDRGTKVIIYVSTGE | -0.437
69 | HMETSIQFIRLEIGHNHPWVNQTLKEIPTIPGTLIAAVLRGDEDQAIIPKGDTLLKEGDSVIIGAKEYQD | -1.42
